{"source": "paper PMC9740503", "about": "“[^68Ga]Ga-DATA^5m-LM4, a PET Radiotracer in the Diagnosis of SST2R-Positive Tumors: Preclinical and First Clinical Results” (International Journal of Molecular Sciences, 2022)", "key": {"human SST2R": {"target": "T1, human SST2R (Homo sapiens, UniProt P30874)", "T1 construct": "expressed in transfected cells", "T1 sequence (P30874 whole entry)": "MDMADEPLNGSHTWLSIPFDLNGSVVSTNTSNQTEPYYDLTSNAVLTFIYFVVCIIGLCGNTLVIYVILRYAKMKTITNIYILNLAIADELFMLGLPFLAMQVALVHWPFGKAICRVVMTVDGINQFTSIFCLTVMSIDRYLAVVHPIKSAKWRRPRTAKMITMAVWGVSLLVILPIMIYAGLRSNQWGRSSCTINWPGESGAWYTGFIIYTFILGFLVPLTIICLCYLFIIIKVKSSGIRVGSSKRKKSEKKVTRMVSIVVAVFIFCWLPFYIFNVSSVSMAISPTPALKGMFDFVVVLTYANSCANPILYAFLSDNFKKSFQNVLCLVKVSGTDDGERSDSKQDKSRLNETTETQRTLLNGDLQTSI", "assay": "Competition binding against [125I-Tyr25]LTT-SS28 in HEK293-SST2R cell membranes", "conditions": "HEK293-SST2R cell membrane homogenates; 1 h at 22 °C; 50 mM HEPES pH 7.4 binding buffer; mean ± sd, n = 3 independent experiments in triplicate; read-out: IC50, displacement of [125I-Tyr25]LTT-SS28 from SST2R binding sites", "description": "The binding affinities of DATA^5m-LM4 and [^natGa]Ga-DATA^5m-LM4 for the human SST2R were determined via competition binding assays against [^125I-Tyr^25]LTT-SS28 in freshly harvested HEK293-SST2R cell membranes. As depicted in Figure 2, DATA^5m-LM4 as well as its [^natGa]Ga-tagged version displaced [^125I-Tyr^25]LTT-SS28 from SST2R-binding sites in the membrane homogenates in a monophasic and dose-dependent manner.\nCompetition binding assays for DATA^5m-LM4 and [^natGa]Ga-DATA^5m-LM4 were performed in freshly harvested HEK293-SST2R cell membranes against [^125I-Tyr^25]LTT-SS28 [30, 33]. […] Filters were collected and their activity measured in a γ-counter (automated multi-sample well-type instrument with a NaI(Tl) 3″ crystal, Canberra Packard Cobra^TM Quantum U5003/1, Auto-Gamma® counting system). The half-maximal inhibitory concentration (IC50) values were calculated by nonlinear regression for a one-site model applying the PRISM^TM 6.0 GraphPad software (San Diego, CA, USA) and represent mean IC50 ± sd values from at least three independent experiments were performed in triplicate."}, "HEK293-SST2R cells": {"system": "HEK293-SST2R cells", "assay": "Radioligand uptake/internalization in HEK293-SST2R cells", "format": "cell-based, human", "conditions": "1 h at 37 °C, 0.5 pmol total peptide, specific, % of total added activity, mean ± sd, 3 independent experiments in triplicate", "description": "This distinct cell distribution pattern between [^67Ga]Ga-DATA^5m-LM4 and [^67Ga]Ga-DOTA-TOC is consistent with an SST2R antagonist and agonist behavior, respectively. […] Cells were seeded in poly-lysine coated six-well plates (1 × 10^6/well) and grew to confluent monolayers overnight. At the day of the experiment, plates were placed on ice and rinsed twice with chilled internalization medium (DMEM Glutamax-I supplemented by 1% (v/v) FBS). […] In the upper three wells internalization medium was added (150 μL, total) and in the lower three a solution of TATE to a final concentration of 1 μM (150 μL, non-specific). After 60 min incubation at 37 °C, the medium was removed and cells were washed with ice-cold 0.5% BSA-PBS. Cells were incubated (2 × 5 min) at ambient temperature in acid wash buffer (50 mM glycine in 0.1 M NaCl, pH 2.8) and supernatants were collected (membrane-bound fraction). After rinsing with 0.5% BSA-PBS, the cells were lysed by treatment with 1 N NaOH; the lysates were collected (internalized fraction). Samples were measured in the γ-counter and cell-associated/internalized radioactivity vs. total added activity per well was calculated. Specific values were obtained by subtracting values in the presence of excess TATE (lower well triplicates) from those without the addition of blocker (upper well triplicates). […]"}, "[1]": {"assay": "Biodistribution in SCID mice bearing twin HEK293-SST2R and wtHEK293 tumors", "format": "in vivo", "conditions": "male, mouse, iv, 10 pmol, total radioactivity", "description": "Inocula containing a suspension of freshly-harvested HEK293-SST2R cells (150 μL, 1.2 × 10^7cells in normal saline) and wtHEK293 cells (150 μL, 0.6 × 10^7 cells in normal saline) were subcutaneously (sc) injected in the right and left flanks of male SCID mice (21.5–25.0 g body weight, six weeks of age on arrival day; NCSR “Demokritos” Animal House, Athens, Greece). Mice were kept under aseptic conditions for about 2 weeks until well-palpable tumors (300–600 mg) were grown at the inoculation sites. […] Samples of blood and tissues of interest were collected along with implanted tumors, weighted and counted in the gamma counter. Biodistribution results were calculated as percent of the injected activity per gram tissue (%IA/g) with the aid of appropriate standards of the administered dose and the Microsoft Excel program. Results are presented as mean %IA/g values ± sd, n = 4 per time point, as determined by the PRISM^TM 6.0 GraphPad software (San Diego, CA, USA). […]"}, "SST2R": {"system": "SST2R", "conditions": "against the same radioligand; read-out: IC50, SST2R autoradiography; cited from earlier work", "text": "On the other hand, by changing the metal to Lu the IC50 determined for [^natL ..."}}, "note": "Where two headings read alike, the source gives them in different places. Positions of bridges follow the written chain, without caps; N, C: chain ends. Non-standard residues stand in square brackets, D forms with d. Residues, ends and D or L forms follow the SMILES beside them. *: point of attachment. DOTA = O=C(O)CN1CCN(CC(=O)O)CCN(CC(=O)*)CCN(CC(=O)O)CC1; X1 = CN(CC(=O)O)C1(CCCCC(=O)*)CN(CC(=O)O)CCN(CC(=O)O)C1; dPhe(4-NHCONH2) = NC(=O)Nc1ccc(C[C@@H](N)C(=O)O)cc1; Phe(4-Cl) = N[C@@H](Cc1ccc(Cl)cc1)C(=O)O; 4Pal = N[C@@H](Cc1ccncc1)C(=O)O"}
{"compound": "C[C@@H](O)[C@@H]1NC(=O)[C@H](CCCCN)NC(=O)[C@@H](Cc2ccc(NC(N)=O)cc2)NC(=O)[C@H](Cc2ccncc2)NC(=O)[C@H](NC(=O)[C@H](Cc2ccc(Cl)cc2)NC(=O)CCCCC2(N(C)CC(=O)O)CN(CC(=O)O)CCN(CC(=O)O)C2)CSSC[C@@H](C(=O)N[C@H](Cc2ccc(O)cc2)C(N)=O)NC1=O", "note": "[DATA^5m-LM4] (X1-[Phe(4-Cl)][dC][4Pal][dPhe(4-NHCONH2)]KTC[dY]-NH2; disulfide 2-7)", "values": [{"measurement": "IC50", "setting": "human SST2R", "value": "1.24 ± 0.2", "unit": "nM"}]}
{"compound": "C[C@@H](O)[C@@H]1NC(=O)[C@H](CCCCN)NC(=O)[C@@H](Cc2ccc(NC(N)=O)cc2)NC(=O)[C@H](Cc2ccc(O)cc2)NC(=O)[C@H](NC(=O)[C@H](Cc2ccc(Cl)cc2)NC(=O)CN2CCN(CC(=O)O)CCN(CC(=O)O)CCN(CC(=O)O)CC2)CSSC[C@@H](C(=O)N[C@H](Cc2ccc(O)cc2)C(N)=O)NC1=O", "note": "[[^67Ga]Ga-DOTA-LM3, metal not drawn] ({DOTA}-[Phe(4-Cl)][dC]Y[dPhe(4-NHCONH2)]KTC[dY]-NH2; disulfide 2-7)", "values": [{"measurement": "total cell uptake (membrane bound + internalized)", "setting": "HEK293-SST2R cells", "value": "2.51 ± 0.36", "unit": "%"}, {"measurement": "tissue uptake at 1 h", "setting": "[1]; HEK293-SST2R tumor (Tu+), 1 h pi, iv 10 pmol total peptide, mean ± sd, n = 4, read-out: Tu+ (HEK293-SST2R tumor) uptake", "value": "25.3 ± 6.23", "unit": "%ID/g"}, {"measurement": "tissue uptake at 4 h", "setting": "[1]; HEK293-SST2R tumor (Tu+), 4 h pi, iv 10 pmol total peptide, mean ± sd, n = 4, read-out: Tu+ (HEK293-SST2R tumor) uptake", "value": "16.8 ± 1.22", "unit": "%ID/g"}, {"measurement": "tissue uptake at 1 h", "setting": "[1]; in vivo, Blood uptake", "value": "1.18 ± 0.03", "unit": "%ID/g"}, {"measurement": "tissue uptake at 4 h", "setting": "[1]; in vivo, Blood uptake", "value": "1.73 ± 0.47", "unit": "%ID/g"}, {"measurement": "tissue uptake at 1 h", "setting": "[1]; in vivo, Femur uptake", "value": "1.39 ± 0.39", "unit": "%ID/g"}, {"measurement": "tissue uptake at 4 h", "setting": "[1]; in vivo, Femur uptake", "value": "0.67 ± 0.14", "unit": "%ID/g"}, {"measurement": "tissue uptake at 1 h", "setting": "[1]; in vivo, Heart uptake", "value": "1.54 ± 0.78", "unit": "%ID/g"}, {"measurement": "tissue uptake at 4 h", "setting": "[1]; in vivo, Heart uptake", "value": "0.66 ± 0.14", "unit": "%ID/g"}, {"measurement": "tissue uptake at 1 h", "setting": "[1]; in vivo, Intestines uptake", "value": "1.26 ± 0.52", "unit": "%ID/g"}, {"measurement": "tissue uptake at 4 h", "setting": "[1]; in vivo, Intestines uptake", "value": "1.41 ± 0.37", "unit": "%ID/g"}, {"measurement": "tissue uptake at 1 h", "setting": "[1]; in vivo, Kidneys uptake", "value": "36 ± 5.96", "unit": "%ID/g"}, {"measurement": "tissue uptake at 4 h", "setting": "[1]; in vivo, Kidneys uptake", "value": "37.6 ± 3.44", "unit": "%ID/g"}, {"measurement": "tissue uptake at 1 h", "setting": "[1]; in vivo, Liver uptake", "value": "1.82 ± 0.63", "unit": "%ID/g"}, {"measurement": "tissue uptake at 4 h", "setting": "[1]; in vivo, Liver uptake", "value": "1.43 ± 0.19", "unit": "%ID/g"}, {"measurement": "tissue uptake at 1 h", "setting": "[1]; in vivo, Lungs uptake", "value": "3 ± 0.77", "unit": "%ID/g"}, {"measurement": "tissue uptake at 4 h", "setting": "[1]; in vivo, Lungs uptake", "value": "1.21 ± 0.24", "unit": "%ID/g"}, {"measurement": "tissue uptake at 1 h", "setting": "[1]; in vivo, Muscle uptake", "value": "0.56 ± 0.22", "unit": "%ID/g"}, {"measurement": "tissue uptake at 4 h", "setting": "[1]; in vivo, Muscle uptake", "value": "0.25 ± 0.06", "unit": "%ID/g"}, {"measurement": "tissue uptake at 1 h", "setting": "[1]; in vivo, Pancreas uptake", "value": "1.49 ± 0.71", "unit": "%ID/g"}, {"measurement": "tissue uptake at 4 h", "setting": "[1]; in vivo, Pancreas uptake", "value": "1.24 ± 0.44", "unit": "%ID/g"}, {"measurement": "tissue uptake at 1 h", "setting": "[1]; in vivo, Spleen uptake", "value": "1.73 ± 0.85", "unit": "%ID/g"}, {"measurement": "tissue uptake at 4 h", "setting": "[1]; in vivo, Spleen uptake", "value": "1.06 ± 0.25", "unit": "%ID/g"}, {"measurement": "tissue uptake at 1 h", "setting": "[1]; in vivo, Stomach uptake", "value": "0.8 ± 0.17", "unit": "%ID/g"}, {"measurement": "tissue uptake at 4 h", "setting": "[1]; in vivo, Stomach uptake", "value": "0.5 ± 0.08", "unit": "%ID/g"}, {"measurement": "tissue uptake at 1 h", "setting": "[1]; wtHEK293 tumor (Tu-), 1 h pi, iv 10 pmol total peptide, mean ± sd, n = 4, read-out: Tu- (wtHEK293 tumor) uptake", "value": "1.45 ± 0.27", "unit": "%ID/g"}, {"measurement": "tissue uptake at 4 h", "setting": "[1]; wtHEK293 tumor (Tu-), 4 h pi, iv 10 pmol total peptide, mean ± sd, n = 4, read-out: Tu- (wtHEK293 tumor) uptake", "value": "1.13 ± 0.31", "unit": "%ID/g"}]}
{"compound": "DOTA-DPhe-c[DCys-Tyr-DAph(Cbm)-Lys-Thr-Cys]-DTyr-NH2 (disulfide) [DOTA-LM3, DOTA-derivatized SST2R antagonist LM3]", "values": [{"measurement": "IC50", "setting": "SST2R", "value": "1.4 ± 0.5", "unit": "nM"}]}
{"compound": "[^natGa]Ga-DATA^5m-LM4: DATA5m-LM4 tagged with natural gallium (DATA5m-[Phe(4-Cl)][dC][4Pal][dPhe(4-NHCONH2)]KTC[dY]-NH2; disulfide 2-7; also: complexed with natural gallium)", "values": [{"measurement": "IC50", "setting": "human SST2R", "value": "1.61 ± 0.32", "unit": "nM"}]}
